Measured values reported in US11015206B2, “Compositions and methods comprising sequences having hydroxyphenylpyruvate dioxygenase (HPPD) activity” (PIONEER HI-BRED INTERNATIONAL, INC., priority 2014, dated 2021).

B1: Z. mays wt: maize wild-type HPPD, SEQ ID NO:1 (glycine for proline at position 2) (protein)
chain: MGPTPTAAAAGAAVAAASAAEQAAFRLVGHRNFVRFNPRSDRFHTLAFHHVELWCADAASAAGRFSFGLGAPLAARSDLSTGNSAHASLLLRSGSLSFLFTAPYAHGADAATAALPSFSAAAARRFAADHGLAVRAVALRVADAEDAFRASVAAGARPAFGPVDLGRGFRLAEVELYGDVVLRYVSYPDGAAGEPFLPGFEGVASPGAADYGLSRFDHIVGNVPELAPAAAYFAGFTGFHEFAEFTTEDVGTAESGLNSMVLANNSENVLLPLNEPVHGTKRRSQIQTFLDHHGGPGVQHMALASDDVLRTLREMQARSAMGGFEFMAPPTSDYYDGVRRRAGDVLTEAQIKECQELGVLVDRDDQGVLLQIFTKPVGDRPTLFLEIIQRIGCMEKDEKGQEYQKGGCGGFGKGNFSQLFKSIEDYEKSLEAKQAAAAAAAQGS
modifications: Zea mays
B2: R7-9070: shuffled maize HPPD, Round 7, variant 9070 (SEQ ID NO:2); backbone for saturation mutagenesis (protein)
chain: MGPTPTATAAGAAVAAASAAEQAAFRLVGHRNFVRFNPRSDRFQTLAFHHVELWCADAASAAGRFSFALGVPLAARSDLSTGNSAHASLLLRSGSLSLLFTAPYAHGADAATAALPSFSAAAARRFAADHGLAVRAVALRVADAEDAFRASVAAGARPAFGPVDLGRGFRLAEVELYGDVVLRYVSYPDGAAGEPFLPGFEGVASPGAADYGLSRFDHIVGNVPELAPAAAYMAGFTGFHEFAEFTTEDVGTTESGLNSMALANNSENVLLPLNEPVHGTKRRSQIQTFLDHHGGPGVQHIALASDDVLRTLREMRARSAMGGFEFLPPPLSDYYDGVRRCAGDVLTEAQINECQELGVMVDRDDQGVLLQIFTKPVGDRPTFFLEIIQRIGCMEKDEKGQEYQKGGCGGFGKGNFGQLFKSIEDYEKSLEAKQAAAAATAQGS
modifications: Zea mays variant form created by artificial means.
notes: backbone for saturation mutagenesis
B3: P056028-D-03 (protein)
chain: MGPTPTATAAGAAVAAASAAEQAAFRLVGHRNFVRFNPRSDRFQTLAFHHVELWCADAASAAGRFSFALGVPLAARSDLSTGNSAHASLLLRSGSLSLLFTAPYAHGADAATAALPSFSAAAARRFAADHGLAVRAVALRVADAEDAFRASVAAGARPAFGPVDLGRGFRLAEVELYGDVVMRYVSYPDGAAGEPFLPGFEGVASPGAADYGLNRFDHIVGNVPELAPAAAYMAGFTGFHEFAEFTTEDVGTTESGLNSMALANNSENVLLPLNEPVHGTKRRSQIQTFLDHHGGPGVQHIALASDDVLRTLREMRARSAMGGFEFLPPPLSDYYDGVRRCAGDVLTEAQINECQELGVMVDRDDEGVLLQIFTKPVGDRPTFFLEIIQRIGCMEKDEKGQEYQKGGCGGFGKGNFGQLFKSIEDYEKSLEAKQAAAAATAQGS
modifications: Zea mays variant form created by artificial means.
B4: P056028-B-02 (protein)
chain: MGPTPTATAAGAAVAAASAAEQAAFRLVGHRNFVRFNPRSDRFQTLAFHHVELWCADAASAAGRFSFALGVPLAARSDLSTGNSAHASLLLRSGSLSLLFTAPYAHGADAATAALPSFSAAAARRFAADHGLAVRAVALRVADAEDAFRASVAAGARPAFGPVDLGRGFRLAEVELYGDVVLRYVSYPDGAAGEPFLPGFEGVASSGAADYGLSRFDHIVGNVPELAPAAAYMAGFTGFHEFAEFTTEDVGTTESGLNSMALANNSENVLLPLNEPVHGTKRRSQIQTFLDHHGGPGVQHIALASDDVLRTLREMRARSAMGGFEFLPPPLSDYYDGVRRCAGDVLTEAQINECQKLGVMVDRDDEGVLLQIFTKPVGDRPTFFLEIIQRIGCMEKDEKGQEYQKGGCGGFGKGNFGQLFKSIEDYERSLEAKQAAAVATAQGS
modifications: Zea mays variant form created by artificial means.
B5: P056028-G-01 (protein)
chain: MGPTPTATAAGAAVAAASAAEQAAFRLVGHRNFVRFNPRSDRFQTLAFHHVELWCADAASAAGRFSFALGVPLAARSDLSTGNSAHASLLLRSGSLSLLFTAPYAHGADAATAALPSFSAAAARRFAADHGLAVRAVALRVADAEDAFRASVAAGARPAFGPVDLGRGFRLAEVELYGDVVLRYVSYPDGAAGEPFLPGFEGVASPGAADLGLNRFDHIVGNVPELAPAAAYMAGFTGFHEFAEFTTEDVGTTESGLNSMALANNSENVLLPLNEPVHGTKRRSQIQTFLDHHGGPGVQHIALASDDVLRTLREMRARSAMGGFEFLPPPLSDYYDGVRKCAGDVLTEAQINECQELGVMVDRDDEGVLLQIFTKPVGDRPTFFLEIIQRIGCMEKDEKGQEYQKGGCGGFGKGNFGQLFKSIEDYEKSLEKKRAAAAATAQGS
modifications: Zea mays variant form created by artificial means.
B6: P056028-G-01R (protein)
chain: MGPTPTATAAGAAVAAASAAEQAAFRLVGHRNFVRFNPRSDRFQTLAFHHVELWCADAASAAGRFSFALGVPLAARSDLSTGNSAHASLLLRSGSLSLLFTAPYAHGADAATAALPSFSAAAARRFAADHGLAVRAVALRVADAEDAFRASVAAGARPAFGPVDLGRGFRLAEVELYGDVVLRYVSYPDGAAGEPFLPGFEGVASPGAADLGLNRFDHIVGNVPELAPAAAYMAGFTGFHEFAEFTTEDVGTTESGLNSMALANNSENVLLPLNEPVHGTKRRSQIQTFLDHHGGPGVQHIALASDDVLRTLREMRARSAMGGFEFLPPPLSDYYDGVRKCAGDVLTEAQINECQELGVMVDRDDEGVLLQIFTKPVGDRPTFFLEIIQRIGCREKDEKGQEYQKGGCGGFGKGNFGQLFKSIEDYEKSLEKKRAAAAATAQGS
modifications: Zea mays variant form created by artificial means.
B7: P056028-A-03 (protein)
chain: MGPTPTATAAGAAVAAASAAEQAAFRLVGHRNFVRFNPRSDRFQTLAFHHVELWCADAASAAGRFSFALGVPLAARSDLSTGNSAHASLLLRSGSLSLLFTAPYAHGADAATAALPSFSAAAARRFAADHGLAVRAVALRVADAEDAFRASVAAGARPAFGPVDLGRGFRLAEVELYGDVVLRYVSYPDGGAGEPFLPGFEGVASPGAADLGLSRFDHIVGNVPELAPAAAYMAGFTGFHEFAEFTTEDVGTTESGLNSMALANNSENVLLPLNEPVHGTKRRSQIQTFLDHHGGPGVQHIALASDDVLRTLREMRARSAMGGFEFLPPPLSDYYDGVRRCAGDVLTEAQINECQELGVMVDRDDEGVLLQIFTKPVGDRPTFFLEIIQRIGCMEKDEKGQEYQKGGCGGFGKGNFGQLFKSIEDYEKSLERKRAAAAATAQGS
modifications: Zea mays variant form created by artificial means.

Key:
[1] = system: 4-hydroxyphenylpyruvate dioxygenase (HPPD); assay: Estimate of kcat from initial rate at saturating hydroxyphenylpyruvate without inhibitor (ON rate ratio assay); type: biochemical, Z. mays
In short: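 Reactions used 60 or 120 nM HPPD and saturating 100 μM hydroxyphenylpyruvate without inhibitor. kcat was estimated from the initial rate at the known enzyme concentration.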

[2] = system: 4-hydroxyphenylpyruvate dioxygenase (HPPD); assay: ON rate ratio: HPPD reaction rate with vs without inhibitor in the 70 to 90 second interval; type: biochemical, Z. mays; settings: for ON ratio (parameters with tembotrione): Table 5; for Insensitivity, isoxaflutole (DKN), Rate ratio ON: inhibitor diketonitrile form of isoxaflutole (DKN); for Insensitivity, mesotrione, Rate ratio ON: inhibitor mesotrione; for Insensitivity, sulcotrione, Rate ratio ON: inhibitor sulcotrione; for Insensitivity, tembotrione, Rate ratio ON: inhibitor tembotrione; for Insensitivity, topramezone, Rate ratio ON: inhibitor topramezone
In short: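 Time courses of HPPD reactions, 60 or 120 nM enzyme with 100 μM HPP substrate, run with and without 4 μM inhibitor (e.g. mesotrione, tembotrione). Value is the rate with inhibitor over rate without, taken over 70–90 s; higher ratio reflects slower kON.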

[3] = Table 5, single substitutions in Round 7 variant 9070 (SEQ ID NO:2), estimate from initial rate at saturating hydroxyphenylpyruvate without inhibitor
[4] = Table 7, combinatorial variants
[5] = Table 7, tembotrione, combinatorial variants

Molecule	kcat [1, 3] [s⁻¹]	ON ratio (parameters with tembotrione) ([2]; tembotrione)	Insensitivity, isoxaflutole (DKN), Rate ratio ON [2]	Insensitivity, mesotrione, Rate ratio ON [2]	Insensitivity, sulcotrione, Rate ratio ON [2]	Insensitivity, tembotrione, Rate ratio ON [2]	Insensitivity, topramezone, Rate ratio ON [2]	ON rate ratio ([2]; mesotrione)	ON rate ratio ([2]; mesotrione, listed as wild type)	kcat ([1]; Megatable 3, shuffled variants) [s⁻¹]	kcat [1, 4] [s⁻¹]	ON rate ratio [2, 5]
B1	3.5	0.17	0.08	0.20	0.30	0.20	0.100	0.20	0.2	–	–	–
B2	0.57	0.74	0.82	0.66	0.81	0.80	0.79	0.67	–	0.667	0.667	0.744
B3	–	–	0.76	0.68	0.76	0.77	0.80	–	–	0.327	0.327	0.770
B4	–	–	0.80	0.63	0.81	0.80	0.79	–	–	0.47	0.47	0.800
B5	–	–	0.77	0.71	0.78	0.77	0.80	–	–	0.537	0.537	0.742
B6	–	–	0.77	0.73	0.75	0.72	0.81	–	–	1.18	1.18	0.719
B7	–	–	0.81	0.70	0.80	0.80	0.81	–	–	0.4	0.4	0.748
